Substrate in this data set: Nc1ncnc2c1ncn2C=C=CCO
In words: Vmax by adenosine deaminase.

Several values for one entry are separate records, joined by “and”; a condition that tells them apart may be missing. Equal values may be shown once.

B1: Adenosine deaminase (Bos taurus), P56658 (protein)
chain: MAQTPAFNKPKVELHVHLDGAIKPETILYYGRKRGIALPADTPEELQNIIGMDKPLSLPEFLAKFDYYMPAIAGCREAVKRIAYEFVEMKAKDGVVYVEVRYSPHLLANSKVEPIPWNQAEGDLTPDEVVSLVNQGLQEGERDFGVKVRSILCCMRHQPSWSSEVVELCKKYREQTVVAIDLAGDETIEGSSLFPGHVKAYAEAVKSGVHRTVHAGEVGSANVVKEAVDTLKTERLGHGYHTLEDATLYNRLRQENMHFEVCPWSSYLTGAWKPDTEHPVVRFKNDQVNYSLNTDDPLIFKSTLDTDYQMTKNEMGFTEEEFKRLNINAAKSSFLPEDEKKELLDLLYKAYGMPSPASAEQCL
With B1, the Vmax (in general, the rate approached at saturating substrate) is 0.41 µM/min and 0.52 µM/min.

The record behind these values is ChEMBL document CHEMBL1126199, “(R)-(-)- and (S)-(+)-adenallene: synthesis, absolute configuration, enantioselectivity of antiretroviral effect, and enzymic deamination” (J Med Chem, 1992).
